Source: PMC6385203, “Mutations in the palm domain disrupt modulation of acid-sensing ion channel 1a currents by neuropeptides” (Scientific Reports, 2019)
Ends that are not written are not given here.

What was measured:
[1] = biological target: T1, human ASIC1a N416C (human) (UniProt P78348)
T1 sequence: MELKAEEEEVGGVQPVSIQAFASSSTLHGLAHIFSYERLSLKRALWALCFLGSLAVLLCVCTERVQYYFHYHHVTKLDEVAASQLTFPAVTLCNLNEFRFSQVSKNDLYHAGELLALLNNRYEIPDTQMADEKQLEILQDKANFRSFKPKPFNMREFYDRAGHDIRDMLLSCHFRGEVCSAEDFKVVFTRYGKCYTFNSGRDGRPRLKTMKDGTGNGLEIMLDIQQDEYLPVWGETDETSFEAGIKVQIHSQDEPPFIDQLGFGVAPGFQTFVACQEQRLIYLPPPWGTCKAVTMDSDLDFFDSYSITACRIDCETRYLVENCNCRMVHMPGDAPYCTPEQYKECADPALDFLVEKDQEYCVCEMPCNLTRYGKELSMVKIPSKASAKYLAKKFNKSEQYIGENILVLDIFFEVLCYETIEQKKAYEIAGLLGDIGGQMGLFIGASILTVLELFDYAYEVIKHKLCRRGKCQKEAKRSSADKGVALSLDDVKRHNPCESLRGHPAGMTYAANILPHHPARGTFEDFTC

[2] = biological target: T2, human acid-sensing ion channel 1a, wild type (human) (UniProt P78348)
T2 sequence: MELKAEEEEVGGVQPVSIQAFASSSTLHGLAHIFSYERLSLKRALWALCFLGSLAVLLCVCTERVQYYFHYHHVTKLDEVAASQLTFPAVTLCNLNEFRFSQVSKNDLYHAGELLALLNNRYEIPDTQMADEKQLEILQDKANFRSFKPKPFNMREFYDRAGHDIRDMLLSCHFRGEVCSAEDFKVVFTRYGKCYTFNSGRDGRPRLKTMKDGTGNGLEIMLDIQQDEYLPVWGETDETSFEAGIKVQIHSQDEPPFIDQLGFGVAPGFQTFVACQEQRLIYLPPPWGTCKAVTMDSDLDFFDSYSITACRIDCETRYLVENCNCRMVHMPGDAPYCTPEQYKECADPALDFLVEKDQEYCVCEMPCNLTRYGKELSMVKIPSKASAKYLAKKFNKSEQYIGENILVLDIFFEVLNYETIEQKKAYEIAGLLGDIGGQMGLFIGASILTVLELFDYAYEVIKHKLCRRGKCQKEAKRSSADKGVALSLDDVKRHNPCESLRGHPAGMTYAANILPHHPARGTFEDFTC

[3] = biological target: T3, human ASIC1a F302A (human) (UniProt P78348)
T3 sequence: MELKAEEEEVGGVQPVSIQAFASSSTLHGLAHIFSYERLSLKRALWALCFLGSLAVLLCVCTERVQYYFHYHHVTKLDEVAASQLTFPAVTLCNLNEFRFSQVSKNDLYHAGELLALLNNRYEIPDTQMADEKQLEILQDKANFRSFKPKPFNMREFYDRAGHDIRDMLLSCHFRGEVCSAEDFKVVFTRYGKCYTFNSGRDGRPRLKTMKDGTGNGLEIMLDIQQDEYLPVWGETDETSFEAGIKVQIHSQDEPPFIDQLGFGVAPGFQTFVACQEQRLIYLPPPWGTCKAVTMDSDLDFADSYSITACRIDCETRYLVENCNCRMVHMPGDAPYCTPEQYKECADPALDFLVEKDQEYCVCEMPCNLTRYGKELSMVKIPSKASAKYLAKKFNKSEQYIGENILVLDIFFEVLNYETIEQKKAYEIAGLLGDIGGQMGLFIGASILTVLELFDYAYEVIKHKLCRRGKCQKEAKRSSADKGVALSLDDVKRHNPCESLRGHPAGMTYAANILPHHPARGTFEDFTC

[4] = biological target: T2, human acid-sensing ion channel 1a, wild type (human); remark: listed apart in the source

FRRF-NH2 [FRRFa (Phe-Arg-Arg-Phe-amide)]
EC50 of FRRFa for the I (sust)/I (peak) ratio increase at pH5, two-electrode voltage-clamp [1]: 6 μM
koff from the time course of disappearance of the FRRFa-induced sustained current after washout of 50 μM FRRFa [1]: 0.027 s⁻¹
koff from the time course of disappearance of the FRRFa-induced sustained current, WT in the direct comparison with N416C [2]: 0.029
EC50 of the FRRFa-mediated sustained current induction, two-electrode voltage-clamp [3]: 11 µM
EC50 of the induction of a sustained current (I (sust)/I (peak) at pH5) by FRRFa, two-electrode voltage-clamp, Xenopus oocytes [4]: 37 μM
association rate constant kon from the time course of appearance of the sustained current fraction with 50 μM FRRFa pre-applied at pH7.4, two-electrode voltage-clamp [4]: 162 s^−1 M^−1
rate of disappearance of the sustained current after a 50-s incubation with 50 μM FRRFa (rate of unbinding), two-electrode voltage-clamp [4]: 0.025 s⁻¹
